Measured values reported in the supplement of paper PMC12042874.
± gives the uncertainty stated by the source.

assay: amyloid nucleation score (Sup35N fusion, yeast selection) (log enrichment); library NNK3; higher = more nucleation; inactive = no reads after selection
Procedure, shortened: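 The nucleation score is the DiMSum log enrichment of output over input reads, centred on the mode score of non-aggregating sequences. Only sequences with 100 or more input reads were scored, using Illumina sequencing of input and output plasmid inserts. Psi-negative yeast expressing Sup35N fused to peptides of 20 random codons were induced 24 hours with 100 μM copper sulfate and grown 7 days at 30°C on medium lacking adenine and uracil.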

**Q.** With FMMMYDCNLDCFRHSIEI as the substance, how does the amyloid nucleation score read?
**A.** inactive

**Q.** With FMPPFASN as the substance, how does the amyloid nucleation score read?
**A.** inactive

**Q.** Which amyloid nucleation score does the source give for FMTLMVTLYLRLYSRSYGPQ here?
**A.** inactive

**Q.** With FMVSRMYEWCVCSVQCLMLF as the substance, how does the amyloid nucleation score read?
**A.** inactive

**Q.** For FMWCYMKYCAVHAFDLSWKV, which amyloid nucleation score is on record?
**A.** inactive

**Q.** For FNANINNNGIRFRREVNLCW, which amyloid nucleation score is on record?
**A.** inactive

**Q.** Which amyloid nucleation score does the source give for FNDYCSIKKSLTKSMYDLNG here?
**A.** inactive

**Q.** For FNERIRTNLFDSWTMWGMCF, which amyloid nucleation score is on record?
**A.** inactive

**Q.** With FNETFYGKVGDILISLCRVL as the substance, how does the amyloid nucleation score read?
**A.** inactive

**Q.** For FNKNTDRGI, which amyloid nucleation score is on record?
**A.** inactive

**Q.** With FNLQL as the substance, how does the amyloid nucleation score read?
**A.** 0.325 ± 0.57

**Q.** Which amyloid nucleation score does the source give for FNSAHDQAAQVRHLHVNVFL here?
**A.** 3 ± 0.064

**Q.** Which amyloid nucleation score does the source give for FNSKTLKLTFFMVVPEYCWW here?
**A.** inactive

**Q.** With FNSMYRVELVHCCSHNKICD as the substance, how does the amyloid nucleation score read?
**A.** 1.41 ± 0.1

**Q.** For FNTPDRAPLLATCAVHANLH, which amyloid nucleation score is on record?
**A.** inactive

**Q.** With FPDTALLGCNCLFCLEGDGL as the substance, how does the amyloid nucleation score read?
**A.** inactive

**Q.** For FPELSGDYLVIRMTVQFWSV, which amyloid nucleation score is on record?
**A.** inactive

**Q.** Which amyloid nucleation score does the source give for FPGCSRENLTVGLSVTRTEG here?
**A.** inactive

**Q.** For FPGVLSLRYYLLRMRTQ, which amyloid nucleation score is on record?
**A.** inactive

**Q.** For FPYVLVSTPVSPPICW, which amyloid nucleation score is on record?
**A.** inactive

**Q.** With FQFNILNSVSGLCICYDSGH as the substance, how does the amyloid nucleation score read?
**A.** 3.41 ± 0.081

**Q.** Which amyloid nucleation score does the source give for FQRVCYHVWSTKN here?
**A.** inactive

**Q.** With FQVEKQF as the substance, how does the amyloid nucleation score read?
**A.** inactive

**Q.** Which amyloid nucleation score does the source give for FRLLLSKMAYFRADMTYDDF here?
**A.** inactive

**Q.** Which amyloid nucleation score does the source give for FRNRGLNSNMNYSSFNVQSM here?
**A.** -0.124 ± 0.52

**Q.** Which amyloid nucleation score does the source give for FRNSGTNACIL here?
**A.** inactive

**Q.** For FRNWIWVLYEV, which amyloid nucleation score is on record?
**A.** inactive

**Q.** With FRRSVK as the substance, how does the amyloid nucleation score read?
**A.** inactive

**Q.** With FRSGSIDCSKLWILFY as the substance, how does the amyloid nucleation score read?
**A.** inactive

**Q.** For FRSVVWFCGRVLQTGCCGLN, which amyloid nucleation score is on record?
**A.** inactive

**Q.** With FRVKFIMCRHLSPNV as the substance, how does the amyloid nucleation score read?
**A.** 0.682 ± 0.2

**Q.** With FRVNKRHQYEEHVLLENLVF as the substance, how does the amyloid nucleation score read?
**A.** inactive

**Q.** With FSASSISDKIFSMEYCTTWV as the substance, how does the amyloid nucleation score read?
**A.** inactive

**Q.** With FSCSNSLTMVFVEDFNHATY as the substance, how does the amyloid nucleation score read?
**A.** inactive

**Q.** For FSDRRSINPELEF, which amyloid nucleation score is on record?
**A.** inactive

**Q.** With FSFQQSWVSY as the substance, how does the amyloid nucleation score read?
**A.** inactive

**Q.** For FSGGCSVYSMQLFLS, which amyloid nucleation score is on record?
**A.** 1.43 ± 0.11

**Q.** With FSMSWTVDMKE as the substance, how does the amyloid nucleation score read?
**A.** inactive

**Q.** With FSPVSQYWMKGFTYTGNRAR as the substance, how does the amyloid nucleation score read?
**A.** inactive

**Q.** Which amyloid nucleation score does the source give for FSQIPRYISNTKRWLWDYVN here?
**A.** inactive

**Q.** Which amyloid nucleation score does the source give for FSRLFCNSALCIMRFVNTSS here?
**A.** 1.52 ± 0.088

**Q.** For FSVDYQHRCQGQYPYIWYSN, which amyloid nucleation score is on record?
**A.** inactive

**Q.** For FSWRCCFHKNNDCAKTILMF, which amyloid nucleation score is on record?
**A.** inactive

**Q.** Which amyloid nucleation score does the source give for FSYAFWVKIIIVFRRFITRK here?
**A.** inactive

**Q.** For FTLFIQVV, which amyloid nucleation score is on record?
**A.** inactive

**Q.** For FTMASLRIKDIFWLLTNLTW, which amyloid nucleation score is on record?
**A.** inactive

**Q.** With FTNNCYHLAMY as the substance, how does the amyloid nucleation score read?
**A.** -0.456 ± 0.74

**Q.** Which amyloid nucleation score does the source give for FTQSTCSSHSVLFLMDVTRG here?
**A.** inactive

**Q.** With FTSGTMVFTRLFRSNQQWWS as the substance, how does the amyloid nucleation score read?
**A.** 1.53 ± 0.13

**Q.** For FTSNAESTLWTRPRNYRNVS, which amyloid nucleation score is on record?
**A.** inactive

**Q.** Which amyloid nucleation score does the source give for FTSVMKNNV here?
**A.** inactive

**Q.** Which amyloid nucleation score does the source give for FTWRRFRVKSYYDYFASLGV here?
**A.** inactive

**Q.** Which amyloid nucleation score does the source give for FVAHCWQSIY here?
**A.** inactive

**Q.** For FVASHLVVAKGVKASVRKFY, which amyloid nucleation score is on record?
**A.** 1.31 ± 0.089

**Q.** Which amyloid nucleation score does the source give for FVDGVSYGTGTSSYKRTELY here?
**A.** inactive

**Q.** With FVDLIRLCMCFVRMSQSLRT as the substance, how does the amyloid nucleation score read?
**A.** inactive

**Q.** For FVIVYAMCKLYLMEKMRLIS, which amyloid nucleation score is on record?
**A.** inactive

**Q.** Which amyloid nucleation score does the source give for FVLVHSFLECHYIHVTTERL here?
**A.** inactive

**Q.** With FVNVKFQTLCNYIWCTSPYE as the substance, how does the amyloid nucleation score read?
**A.** 2.9 ± 0.06

**Q.** With FVRDRFTIMFEWIAVLRLEL as the substance, how does the amyloid nucleation score read?
**A.** inactive

**Q.** For FVRVALMYFVLKLTSRYKRN, which amyloid nucleation score is on record?
**A.** inactive

**Q.** With FVSIWEHNSIVRRCGVRLDR as the substance, how does the amyloid nucleation score read?
**A.** inactive

**Q.** With FVSRGKLLPNAPGFMWFLLR as the substance, how does the amyloid nucleation score read?
**A.** -0.533 ± 1.9

**Q.** Which amyloid nucleation score does the source give for FVVIAYTEDTGDYRMVLTQW here?
**A.** inactive

**Q.** For FVVSLQYMCQSRYISPCTPI, which amyloid nucleation score is on record?
**A.** inactive

**Q.** For FVYQYYV, which amyloid nucleation score is on record?
**A.** inactive

**Q.** Which amyloid nucleation score does the source give for FWFHLADMVECKCIDVLYYL here?
**A.** inactive

**Q.** For FWFYATLMGEQDK, which amyloid nucleation score is on record?
**A.** -0.331 ± 0.9

**Q.** With FWKCWAVPDVCFYVWRSGCF as the substance, how does the amyloid nucleation score read?
**A.** inactive

**Q.** For FWLRNHFHSIAGICMFVGYW, which amyloid nucleation score is on record?
**A.** inactive

**Q.** Which amyloid nucleation score does the source give for FWLSHQNDDVYTFMPLSCSS here?
**A.** inactive

**Q.** For FWSDFYPHVLIRWFRSMVRS, which amyloid nucleation score is on record?
**A.** inactive

**Q.** Which amyloid nucleation score does the source give for FWTCTSSPVLMRWRRSGFNV here?
**A.** inactive

**Q.** For FWTSLPFVGHNNISCRLPTP, which amyloid nucleation score is on record?
**A.** inactive

**Q.** With FYFDARRSITLSNSNVVKLW as the substance, how does the amyloid nucleation score read?
**A.** 1.93 ± 0.08

**Q.** Which amyloid nucleation score does the source give for FYITFFECD here?
**A.** inactive

**Q.** With FYIYP as the substance, how does the amyloid nucleation score read?
**A.** inactive

**Q.** For FYIYWLFPIIVSFDYVFSGL, which amyloid nucleation score is on record?
**A.** inactive

**Q.** Which amyloid nucleation score does the source give for FYKMVGVRYGC here?
**A.** inactive

**Q.** Which amyloid nucleation score does the source give for FYKRLSMSMIWFLLYLCTDM here?
**A.** inactive

**Q.** With FYLFIVVRMVVLVTDVIVVG as the substance, how does the amyloid nucleation score read?
**A.** inactive

**Q.** With FYLKLMSLVMSMDIMLTSLC as the substance, how does the amyloid nucleation score read?
**A.** inactive

**Q.** With FYMSNDCP as the substance, how does the amyloid nucleation score read?
**A.** inactive

**Q.** With FYSIPMLRLVVNNVLKLTAI as the substance, how does the amyloid nucleation score read?
**A.** inactive

**Q.** For FYSLNSFSFYASRVITDNRV, which amyloid nucleation score is on record?
**A.** 1.09 ± 0.13

**Q.** Which amyloid nucleation score does the source give for FYSSACVRPVVRYCCVMCDS here?
**A.** inactive

**Q.** Which amyloid nucleation score does the source give for FYVLHPCAPFVFPHQTTNIT here?
**A.** inactive

**Q.** Which amyloid nucleation score does the source give for FYVNPITEGMA here?
**A.** inactive

**Q.** For FYWGAFNPYFVLIGILAYYT, which amyloid nucleation score is on record?
**A.** inactive

**Q.** For FYYNVRLRRAGWAYRITWTT, which amyloid nucleation score is on record?
**A.** inactive

**Q.** Which amyloid nucleation score does the source give for FYYRSFCRNGRRH here?
**A.** inactive

**Q.** For GAFSYEVFPTGRPLFKTGGH, which amyloid nucleation score is on record?
**A.** inactive

**Q.** Which amyloid nucleation score does the source give for GAHFWKNGVGRWLPRNC here?
**A.** inactive

**Q.** Which amyloid nucleation score does the source give for GALSYKSKSWRS here?
**A.** inactive

**Q.** For GAQSSTEIAQFYKNGMTSNQ, which amyloid nucleation score is on record?
**A.** inactive

**Q.** Which amyloid nucleation score does the source give for GASMLGAIKGYSTSERISLD here?
**A.** 0.175 ± 0.45

**Q.** Which amyloid nucleation score does the source give for GAYSDMTNKIWVPDNLLLL here?
**A.** inactive

**Q.** Which amyloid nucleation score does the source give for GAYVKPNEWCEGFENSSFEV here?
**A.** inactive

**Q.** With GCARLAIMSKLPSCW as the substance, how does the amyloid nucleation score read?
**A.** inactive

**Q.** For GCERMFIMVYSL, which amyloid nucleation score is on record?
**A.** inactive

**Q.** With GCFILLNWVMQGKLAYTSLI as the substance, how does the amyloid nucleation score read?
**A.** inactive

**Q.** Which amyloid nucleation score does the source give for GCFLNNMLIGF here?
**A.** inactive

**Q.** With GCFVNN as the substance, how does the amyloid nucleation score read?
**A.** inactive

**Q.** With GCKRVVTTV as the substance, how does the amyloid nucleation score read?
**A.** -0.606 ± 0.93

**Q.** For GCKWWYSVFREWKSPLSGGV, which amyloid nucleation score is on record?
**A.** inactive

**Q.** With GCKYSATTAHCADKSVPVTG as the substance, how does the amyloid nucleation score read?
**A.** inactive

**Q.** For GCLQTIADWFNFSNMN, which amyloid nucleation score is on record?
**A.** inactive

**Q.** With GCNEHI as the substance, how does the amyloid nucleation score read?
**A.** inactive

**Q.** Which amyloid nucleation score does the source give for GCNYTVSTYILRVSDFTYYM here?
**A.** -0.585 ± 0.76

**Q.** Which amyloid nucleation score does the source give for GCRLPSWMYLVGELISFLSG here?
**A.** inactive

**Q.** Which amyloid nucleation score does the source give for GCSTINALCGHLDVVVCIAG here?
**A.** 1.64 ± 0.094

**Q.** For GCYIVM, which amyloid nucleation score is on record?
**A.** inactive

**Q.** For GCYWSRLGVDHRMPMFIARD, which amyloid nucleation score is on record?
**A.** inactive

**Q.** For GDLVLASAGYLVFGYLL, which amyloid nucleation score is on record?
**A.** inactive

**Q.** Which amyloid nucleation score does the source give for GDTRF here?
**A.** inactive

**Q.** With GEDIL as the substance, how does the amyloid nucleation score read?
**A.** inactive

**Q.** With GENIEYMF as the substance, how does the amyloid nucleation score read?
**A.** 0.025 ± 0.31
